Reference: paper PMC8907193 (2022)
Residue numbers refer to the chain shown, from its start. Numbers in names are those of the source.

Experiments:
[1] = biological target: T1, biotinylated human 20S proteasome (human, UniProt P60900 1-246; P25787 1-234; P25789 1-261; O14818 1-248; P28066 1-241; P25786 …); experiment: BLI
[2] = biological target: T1, biotinylated human 20S proteasome; experiment: BLI; remark: listed apart in the source

B1: PA26^YF (other)
chain: PPKRAALIQNLRDSYTETSSFAVIEEWAAGTLQEIEGIAKAAAEAHGVIRNSTYGRAQAEKSPEQLLGVLQRYQDLCHNVYCQAETIRTVIAIRIPEHKEADNLGVAVQHAVLKIIDELEIKTLGSGEKSGSGGAPTPIGMYALREYLSARSTVEDKLLGSVDAESGKTKGGSQSPSLLLELRQIDADFMLKVELATTHLSTMVRAVINAYLLNWKKLIQPRTGNLSYFT
- koff [1]: 0.00026 s⁻¹
- Kd [2]: 0.22 nM

B2: wild-type PA26 (T. brucei) (natural protein)
chain: B1 chain with A101E, N225S, L226D, S227H, Y228M, F229V, T230S
- koff [1]: 0.00029 s⁻¹
- Kd [2]: 0.1 nM

B3: PA26^E102A-Opt5 (other)
chain: B1 chain with F229Y
- koff [1]: 0.00016 s⁻¹
